Data reported in patent US20060183886A1.

Molecular target: asialoglycoprotein receptor on Hep G2 cells (human (Hep G2 cells)) (UniProt P07306)
Test: cell-based or functional assay

Sequence of UniProt P07306 (P07306 whole entry): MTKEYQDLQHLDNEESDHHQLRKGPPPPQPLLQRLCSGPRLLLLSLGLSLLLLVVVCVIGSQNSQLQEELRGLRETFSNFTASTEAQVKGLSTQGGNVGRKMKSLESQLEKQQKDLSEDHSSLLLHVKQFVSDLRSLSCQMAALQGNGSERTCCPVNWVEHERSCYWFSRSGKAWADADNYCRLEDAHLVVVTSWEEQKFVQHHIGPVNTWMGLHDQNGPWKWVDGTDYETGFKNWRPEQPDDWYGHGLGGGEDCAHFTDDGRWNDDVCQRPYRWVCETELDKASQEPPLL

cell association (uptake) by Hep G2 cells, 1 uM conjugate alone, 37 C, two hours (pmol per 10^6 cells): 7.8
cell association (uptake) by Hep G2 cells, 1 uM conjugate with a 100-fold excess of free 5, 37 C, two hours (pmol per 10^6 cells): 0.42
uptake by Hep G2 cells, 1 uM conjugate, 37 C, about 24 hours (pmol per 10^6 cells): 26.6
Substance: [YEE(ah-GalNAc)3]-SMCC-AET-pU^mpT7
